A word on the Km: it is the substrate concentration at which the rate is half of its maximum. Broadly, the kcat is the number of substrate molecules converted per active site and unit of time at saturation.

Substrate in data set [1]: CCCCCCCCCCCCCCCCCC(=O)SCCNC(=O)CCNC(=O)[C@H](O)C(C)(C)COP(=O)(O)OP(=O)(O)OC[C@H]1O[C@@H](n2cnc3c(N)ncnc32)[C@H](O)[C@@H]1OP(=O)(O)O
The experiment in a line: heptadecane formation by GC-FID; Eadie-Hofstee plot. It is filed as biochemical, Chlorella variabilis. As to conditions: blue light, 20 h, 25 °C, 50 mM Tris-HCl pH 8.5, 30 vol% DMSO, lithium salt, kcat unit doubtful (Vmax 3.22 μM/h).

Substrate in data set [2]: CCCCCCCCCCCCCCCCCC(=O)O
Described as above. It is filed as biochemical, Chlorella variabilis. As to conditions: blue light, 20 h, 25 °C, 50 mM Tris-HCl pH 8.5, 30 vol% DMSO, lithium salt, kcat unit doubtful (Vmax 2.83 μM/h).

B1: CvFAP (fatty acid photodecarboxylase) (Chlorella variabilis) (protein)
chain: SAVEDIRKVLSDSSSPVAGQKYDYILVGGGTAACVLANRLSADGSKRVLVLEAGPDNTSRDVKIPAAITRLFRSPLDWNLFSELQEQLAERQIYMARGRLLGGSSATNATLYHRGAAGDYDAWGVEGWSSEDVLSWFVQAETNADFGPGAYHGSGGPMRVENPRYTNKQLHTAFFKAAEEVGLTPNSDFNDWSHDHAGYGTFQVMQDKGTRADMYRQYLKPVLGRRNLQVLTGAAVTKVNIDQAAGKAQALGVEFSTDGPTGERLSAELAPGGEVIMCAGAVHTPFLLKHSGVGPSAELKEFGIPVVSNLAGVGQNLQDQPACLTAAPVKEKYDGIAISDHIYNEKGQIRKRAIASYLLGGRGGLTSTGCDRGAFVRTAGQALPDLQVRFVPGMALDPDGVSTYVRFAKFQSQGLKWPSGITMQLIACRPQSTGSVGLKSADPFAPPKLSPGYLTDKDGADLATLRKGIHWARDVARSSALSEYLDGELFPGSGVVSDDQIDEYIRRSIHSSNAITGTCKMGNAGDSSSVVDNQLRVHGVEGLRVVDASVVPKIPGGQTGAPVVMIAERAAALLTGKATIGASAAAPATVAA
notes: codon-optimised gene, C-terminal 6xHis tag (3'-terminus), pET28, E. coli BL21(DE3), Ni-NTA purified
For B1, the Michaelis-Menten constant (Km) in data set [1] was determined as 75.30 µM. In data set [2], the Michaelis-Menten constant (Km) is 108.31 µM and the kcat is 979.62 s⁻¹.

The record behind these values is PMC7713262, “Synthesis of high-titer alka(e)nes in Yarrowia lipolytica is enabled by a discovered mechanism” (Nature Communications, 2020).
